Measured values from the supplement of paper PMC9170038.

System: MS2 coat protein
Assay: apparent KD of MS2 coat protein; higher = weaker reporter binding
Conditions: Eterna round: R107
Summary of the method: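 In 100 mM Tris-HCl pH 7.5 with 80 mM KCl and 4 mM MgCl2, and without or with constant ligand, SNAP-549-labelled MS2 coat protein was titrated in twofold steps from 0.7 or 1.5 nM to 3 µM. Per-step times went from 0.8–1.5 h down to 10–20 min. The RNA switches were transcribed on-chip from Illumina sequencing clusters, and apparent KD is the per-design median of normalised cluster binding-curve fits.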

[1] = input ligand: theophylline 20 uM
[2] = input ligand: theophylline 2 mM
[3] = input ligand: tryptophan 2.4 mM

Row | Sequence | apparent KD of MS2 coat protein (input ligand: arginine 13.2 mM) [µM] | apparent KD of MS2 coat protein (input ligand: none) [µM] | apparent KD of MS2 coat protein [1] [µM] | apparent KD of MS2 coat protein [2] [µM] | apparent KD of MS2 coat protein [3] [µM]
1 | CUUGAGACAUGAGGAUCACCCAUGUCCGAAGGAGCGUGCGAAAGCACAGGUAGGUCGCGGACAUGAGGAUCACCCAUGUGAGCGA [EAA NP+V+V2 #7 DOUBLE] | 0.0138 | 0.0218 | 0.0259 | 0.0402 | 0.022
2 | CCGGAGACCGUGUCAGCGGAAGCAAGAACACGAGGACCGGUACGGCCGCCACUCGAAAGAAGACAUGAGGAUCACCCAUGUCCAU [theeternabot_exclusion_MS2_Trp_A_43] | 0.0105 | – | 0.0151 | 0.0138 | –
3 | ACAUGAGGAUCACCCAUGUGCAUCACCCGACGAGGACCGGUACGGCCGCCACUCGGGUAUAUAUUUACAUCGGGUGAUUUUACGU [#24 Tryptophan A Same State] | 0.0291 | – | 0.0559 | 0.0518 | –
4 | UUAAUCAUGUUAGAAAACUAAUAUGCAGAAGGAGCGUGAUAAAACACAGGUAGGUCGCUGAAGGGAACAUGAGGAUCACCCAUGU [AstrosSSArgA#9] | 0.0428 | 0.037 | 0.0436 | 0.0373 | 0.0348
5 | ACUCUGUCGGGUGAUACCAGCCUCGGCACAUCUCGCGCCGAACAUGAGGAUCACCCAUGUGGCCCUUGGCAGCACAUGACAAAUC [Rimalearve] | 0.0641 | – | 0.618 | – | 0.512
6 | UUUUUCGCGGGUGAUACCAGCAAAGCUGUACUGGUCUGGUACAUGAGGAUCACCCAUGUUUGCCCUUGGCAGCGCUCGGGAGAAG [#21 Exclusion-TheophyllineB] | 0.0277 | – | 0.0479 | – | 0.0286
7 | UUUACAUGAGGAUCACCCAUGUGCCAUGAUACCAGACAUGAAAAUGUCCCUUGGCAGCAUGAAGGUACCUCAUCGGGAAACCGAA [Malomerice] | 0.0285 | – | 0.0957 | – | 0.053
8 | CUUAUUUGCUGAAGGAGCGCCCGAGGAGAAGACAUGAGGAUCACCCAUGUAUAUAGUAUAUGGCAGGUAGGUCGCGGUGGGUAGG [Arginine B Same State; Euphoria Solution 3] | 0.0281 | 0.03 | 0.065 | 0.0312 | 0.0269
9 | CAAUGCAGGUCGGCCGCCACUACACACAUGAGGAUCACCCAUGUAGUUACUGGGUGAAGUGGCAGUAGGACCGGGACCUGCAUAC [Brourdmod03] | 0.246 | 0.29 | 0.423 | 0.772 | 0.807
10 | UUUGAUAGGACAGAUACCAGCGUGUUGUUGAACAUGAGGAUCACCCAUGUAGUGAUCAGGCGCCCUUGGCAGCUGGUUUGUUAGG [7.N] | 0.265 | – | 0.363 | – | 0.366
11 | ACUAGUUGUGCAGAUACCAGGCAUGAGGAUCACCCAUGUUUGGGAUGUUCGCAUCUUCCUGUCCCUUGGCAGCUGUACAUCUAGA [Omei Theo B Exc v6] | 0.0499 | 0.0485 | 0.167 | 0.0315 | 0.15
12 | CGGUAUGGGACGGCCGCCACUAUUAUGUAACAAAAUAAACAUGAGGAUCACCCAUGUACAUGGGAUAGGACCGGGUCCUAUAGCG [#23 Same State - Tryptophan B] | 0.0198 | 0.0557 | 0.0709 | 0.133 | 0.0177
13 | GUCCUCGACACGGCCGCCACUGGCUCGCCUGUUGGCGCCGACCCACAUGAGGAUCACCCAUGUUCCAGGACCGGGUGUCACAGCA [theeternabot_sameState_MS2_Trp_B_42] | 0.0646 | – | 0.312 | 0.311 | –
14 | CUUGACAUGAGGAUCACCCAUGUUGGUAAACGAGGACCGGUACGGCCGCCACUCGGUUACGUGUAGUACCGGUAAGAUCCAGGGU [Default title] | 0.0248 | – | 0.0426 | 0.039 | –
15 | GUUCGUCCUACGGCCGCCACUAAAACACAUGAGGAUCACCCAUGUUAGUAUCCUGGCUGGUGUGAUAGGACCGGGUAGGGAAGAA [theeternabot_exclusion_MS2_Trp_B_14] | 0.011 | – | 0.0136 | 0.0108 | –
16 | UAAUAAAUAAAUCCAAGGUGAAGGUCAGAUACCAGCCAGAUAACUGGCCCUUGGCAGCUGAAUAAUCAUGAGGAUCACCCAUGAA [TheoAS 25 #OpenEnded #MS2Late #AlternativeMS2] | 0.0172 | 0.0228 | 0.0247 | 0.0639 | 0.0195
17 | GUCACCAGGAGAAGGAGCGUGAAGACAUGAGGAUCACCCAUGUAGAGGCGCCGACGGCGUUCGCAGGUAGGUCGCUCCUGGUGAC [#1 Same State - Arginine B Attempt #17 (HarryS)] | 0.022 | 0.0205 | 0.0352 | 0.0266 | 0.0204
18 | GGAGGUGAGAGAAGGAGCGGAAGUUUCGUUACAACAUGAGGAUCACCCAUGUAACGUUUAGUCCAGGUAGGUCGCUCUCGGGCGG [jbbgmullin] | 0.0192 | 0.0163 | 0.0252 | 0.0307 | 0.0269
